Reference: the supplement of paper PMC6755084

B1: F1*; the commonest letter at each place (parent)
chain: GAGACCGCAACTGAAAAGTTGTTATCACTTGTCGTAAGACACTTTGGATGGGTTGAAGTTCTGCACGTAGAAGCAAAAGGC

Variants of: B1
Experiment: fraction ligated after 30 min (ligated reads / total reads); higher = more ligase activity
Settings: with F1*sub RNA substrate (template-directed ligation), 42 °C
In short: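 Ribozyme variants were transcribed with T7 from PCR-amplified oligo-pool templates and gel-purified. Ligated and unligated bands, separated on gel, were reverse transcribed with barcoded primers and sequenced on a MiSeq, with core bases filtered at quality ≥20. Fraction ligated per variant was computed as ligated reads divided by total reads.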

| Variant | fraction ligated |
| --- | --- |
| A41C G46A | 0.764 |
| A41C G46T | 0.676 |
| C40T A48T | 0.798 |
| C40T A48C | 0.763 |
| C40T A48G | 0.784 |
| A41G G47T | 0.354 |
| A41G G47C | 0.178 |
| A41G G47A | 0.734 |
| A41T T45A | 0.741 |
| A41T T45C | 0.428 |
| A41T T45G | 0.283 |
| C42A A57G | 0.794 |
| C42A A57T | 0.848 |
| C42A A57C | 0.797 |
| C42T G46C | 0.813 |
| C42T G46T | 0.805 |
| C42T G46A | 0.835 |
| A41T G47C | 0.211 |
| A41T G47T | 0.418 |
| A41T G47A | 0.783 |
| C42T T49C | 0.774 |

| Variant | fraction ligated |
| --- | --- |
| C42T T49A | 0.791 |
| C42T T49G | 0.782 |
| C40T T44C | 0.829 |
| C40T T44G | 0.825 |
| C40T T44A | 0.831 |
| C42G T44G | 0.841 |
| C42G T44A | 0.851 |
| C42G T44C | 0.851 |
| C42G G50T | 0.713 |
| C42G G50A | 0.372 |
| C42G G50C | 0.27 |
| C40G A56G | 0.766 |
| C40G A56C | 0.784 |
| C40G A56T | 0.805 |
| A41C G47T | 0.157 |
| A41C G47C | 0.177 |
| A41C G47A | 0.228 |
| C40T G55T | 0.816 |
| C40T G55A | 0.841 |
| C40T G55C | 0.782 |
| C40G A48C | 0.768 |

| Variant | fraction ligated |
| --- | --- |
| C40G A48T | 0.715 |
| C40G A48G | 0.786 |
| T43A A48G | 0.807 |
| T43A A48T | 0.774 |
| T43A A48C | 0.734 |
| C40T T49G | 0.812 |
| C40T T49A | 0.792 |
| C40T T49C | 0.38 |
| C40G G50C | 0.134 |
| C40G G50A | 0.262 |
| C40G G50T | 0.548 |
| A41C T43G | 0.76 |
| A41C T43A | 0.781 |
| A41C T43C | 0.766 |
| A41G G50A | 0.23 |
| A41G G50T | 0.609 |
| A41G G50C | 0.119 |
| A41G T43C | 0.744 |
| A41G T43A | 0.817 |
| A41G T43G | 0.807 |
| A41G G46C | 0.768 |

| Variant | fraction ligated |
| --- | --- |
| A41G G46T | 0.767 |
| A41G G46A | 0.791 |
| C42T G55A | 0.844 |
| C42T G55C | 0.797 |
| C42T G55T | 0.848 |
| C42A T45G | 0.282 |
| C42A T45A | 0.766 |
| C42A T45C | 0.778 |
| C40A T43G | 0.801 |
| C40A T43A | 0.856 |
| C40A T43C | 0.768 |
| C42A G50C | 0.239 |
| C42A G50A | 0.345 |
| C42A G50T | 0.658 |
| A41G C42G | 0.803 |
| A41G C42T | 0.83 |
| A41G C42A | 0.85 |
| C42T A57G | 0.812 |
| C42T A57T | 0.847 |
| C42T A57C | 0.812 |
